Variants at the floor of the assay were thinned out.
B1: TPR 5TU (parent)
chain: GGAUCUUCUCGAUCUAACAAAAAAGACAAAUCUGCCACAAAGCUUGAGAGCAUCUUCGGAUGCAGAGGCGGCAGCCUUCGGUGGCGCGAUAGCGCCAACGUUCUCAACUAUGACACGCAAAACGCGUGCUCCGUUGAAUGGAGUUUAUCAUG

Variants of: B1
Assay: polymerase ribozyme fitness, log enrichment relative to wild type (log ratio); higher = more active; in vitro selection for triplet polymerase activity
Summary of the method: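 One round of in vitro selection, in triplicate, was applied to PCR-built, transcribed mutant libraries of each subunit of a heterodimeric triplet polymerase ribozyme. The steps were annealing with a biotinylated primer, partner subunit and triplets, incubation frozen at −7 °C, gel excision of extended constructs, streptavidin-bead capture and RT-PCR. Fitness is the logarithm, base 2, of genotype enrichment over wild-type enrichment from inverse-variance-weighted replicate averages of Illumina-sequenced inputs and outputs, keeping genotypes with ≥10 input reads and ≥1 read per output.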

Point of comparison: G84U G126A G136U, “polymerase ribozyme fitness (log ratio)” value -3.56. Against it:
- G81A C118G — higher, -1.67
- G11C C76A — higher, -1.78
- U56C A120C C149U — higher, -1.17
- U44A C54U — within 0.2 log units, -3.59
- A3U C5G A29U U31C A41C U55A U56C G84A C87U U111G U135A — lower, ≤ -4.2
- C54G G81A C95U — higher, -2.33
- A21G G84A A137C — higher, -3.28
- U15G A29U C75G C87G G88U A119G C149A — lower, ≤ -4.2
- A21C C35A C87U — the same, -3.56
- A12C C35G U56G G80A G81C G100C C116U U135C — lower, ≤ -4.2
- C75A G80C C96G C99A G117A — lower, ≤ -4.2
- U7A A29C A41U G94C — lower, ≤ -4.2
- A23G A24U G58A A60G C85G U101A G128A U130C U144G — lower, ≤ -4.2
- U6C C27G C32A U53A A142U C149G — lower, ≤ -4.2
- A3C — higher, -0.142
- A22C C51U U56A G92U G100C U101G C103G G143U G152A — lower, ≤ -4.2
- A12G A20G A26U A41C C54U U77C U102C U146G — lower, ≤ -4.2
- A29U C32U G34C C72U C95A G140C — lower, ≤ -4.2
- A23G A47C C103G A122G U145A — lower, ≤ -4.2
- A24C A66C G71C G84U — lower, ≤ -4.2
- U53G U56A A89G G94A A121G G141U G143A — lower, ≤ -4.2
- U6G C38U C43U A91U C95G U102G — lower, ≤ -4.2
- C54U U56A G84U — higher, -0.698
- C35U C76U C96A C125G A142G — higher, -2.86
- A16G A89U A115G A119G U134G U144A — lower, ≤ -4.2
- A41G C54A U56G C57U G84U C99G U109C U146C — lower, ≤ -4.2
- A26C G92U A106G — higher, -0.538
- G62U A73C G94C — lower, ≤ -4.2
- G59A G133U G140C — within 0.2 log units, -3.69
- A49G A120U — higher, -0.63
- A37C A73G G86A — higher, -2.34
- C51A U55G G88C C95A A119C — lower, ≤ -4.2
- U9G C14A C85U — lower, -4.02
- G68A G88A C116A A119U — lower, -3.78
- G34A U82G C96A C99G — lower, ≤ -4.2
- G11C G92U — higher, -1.84
- A22G A41G C51A C76A G94U A97U G141A — lower, ≤ -4.2
- G81U C85G — higher, -1.76
- A19U A21U A30U A40C U55A C96U G126A C132U G143U — lower, ≤ -4.2
- G83U A91C — lower, ≤ -4.2
- U134A G141C — within 0.2 log units, -3.42
- A24G C87U — higher, -2.3
- A16G A21C G80A C103A U104G — lower, ≤ -4.2
- C54U C85U — higher, -0.491
- A21U A52G G92A G124C — lower, -3.99
- G50U A64G — lower, ≤ -4.2
- A22C C38U G83C A122G G141U — higher, 0.178
- C35A A60U U61G A64C U82C C85A A142C — lower, ≤ -4.2
- U4G C5U U55G A106C — higher, -2.25
- A26U C36A U56G C108A A137C — lower, ≤ -4.2
- A89C C93U C116U G128A — lower, ≤ -4.2
- C8A U15G U55A A73U A91G G140A — lower, ≤ -4.2
- A52C C69A C105U — higher, -3.13
- C10U U82A C87G A89U A142U — lower, ≤ -4.2
- C8G A39C U77C U104G A115C — lower, ≤ -4.2
- U6A A22U — higher, 0.00924
- C75G U82G C87U C131G U134A — lower, ≤ -4.2
- C96U G136A — higher, 0.246
- C75U A110C U146G — lower, ≤ -4.2
- G34A C85A — within 0.2 log units, -3.37
- U56A G70C G117C — lower, -3.79
- G86C C99G A106G G124U G136A U148C — lower, ≤ -4.2
- A52G C54U — higher, 0.381
- A16U G92U C99G — within 0.2 log units, -3.45
- C27U G84A G88A — lower, -4.04
- A41G G58U G59C — higher, -0.488
- A64G C87A C105A U144G — lower, ≤ -4.2
- A30U — higher, -2.87
- C10U A19U C35U C95U C99U — lower, ≤ -4.2
- C38U G59U C79G — lower, -3.85
- G34A A41C C54A U55A C95A C103A A150C — lower, ≤ -4.2
- A28U A49C G58C G59A G84U U146A C149U — lower, ≤ -4.2
- C5A A21U A30G A39U G68A C149A — lower, ≤ -4.2
- U6A A26U U53G C103A U109C — lower, ≤ -4.2
- G71U C85U — higher, -1.67
- A3G G50A — higher, -1.39
- U6G U33A G42U C57U A64C C85G A107G G117C — lower, ≤ -4.2
- G11U A24U G50A U56A A60G C87U G126A U146G — lower, ≤ -4.2
- C116A U148A — within 0.2 log units, -3.52
- G70C G94A — within 0.2 log units, -3.61
- C96G C105U A113C A121U — higher, -2.76
- C10U G59C C85A C116G A138C — lower, ≤ -4.2
- A23U G58C G68A C79G A150G — lower, ≤ -4.2
- G94C A150G — higher, -1.6
- G86U C116U — higher, -1.03
- A41C G58C G59C A113C U145A — lower, -4.1
- U55A G67U C69G C76A A98G — higher, -2.81
- C87U C93G — lower, -4.18
- A16U C57A G58U C75G C87A C99U A142C U144C — lower, ≤ -4.2
- A40C C54U A64U U78A G88C A150G — lower, ≤ -4.2
- C5G U135C — higher, -2.4
- U55A A106G A119C A122G — higher, -0.869
- A24G C27A G84U G86A C131A — lower, ≤ -4.2
- A3G C8G C35A U90G C95U C116G G152A — lower, -4.12
- A49C A52G U78C C93G U146C — lower, ≤ -4.2
- C57G A60C G81C C103A U111G A119C — lower, ≤ -4.2
- C96G G143U — higher, -3.01
- C18U C87U — higher, -1.47
- G46C A91G — higher, -3.27
- C69A A73G C87U — lower, ≤ -4.2
- U9C A21C C57A C93A A115C — lower, -4
- A3U C32U G59A G83C C129U A137C — lower, ≤ -4.2
- U53G C123A G126C — higher, -1.32
- U55A C57G — higher, -0.56
- C32G A40U C95A — lower, -3.93
- A23U U53A U55G C95U C103U C114U G126A G136U A150U — lower, ≤ -4.2
- G58A U61A — higher, -0.894
- C38A C85U — higher, -0.235
- A150G G152U — within 0.2 log units, -3.43
- A3U A16U C38U G65C G88A — lower, ≤ -4.2
- G25C G42C C57U G70A C87A G143A — lower, ≤ -4.2
- G83U G128C — within 0.2 log units, -3.55
- U13A C18U C51U G86A — higher, -2.27
- C8A A12C — higher, -3.07
- C76G U77C G133U — lower, ≤ -4.2
- G59A A73U C75U C87A C95A G100U U127G A150C — lower, ≤ -4.2
- U4G A23U G68A U127A — lower, ≤ -4.2
- A21U C54A A142G — higher, -2.81
- A21U U55A C63U C85U — higher, 0.519
- C96U A115U G124C U151C — lower, ≤ -4.2
- U31G G84U — higher, -0.431
- A40C U44A A49C G65A C75G G84U C118U G128U U130C — lower, ≤ -4.2
- A52G C85U G92A C96A — lower, ≤ -4.2
- C75U A97G C131U U135G — higher, -3.18
- A12G G143U — higher, -2.62
- U55A G65U G70U C87A C95U A98G A137C G141A G143C — lower, ≤ -4.2
- U53A U55G C85A C95U A121C — lower, ≤ -4.2
- C32G A64U C105U G152U — lower, ≤ -4.2
- C38U A52C U55G U56A A120C A121C — higher, -2.04
- U53A G133U — within 0.2 log units, -3.53
- U61A C118G — higher, -1.89
- U31C C87A C108U U148C — lower, -3.95
- A40U G48C A64U G83A G143A — lower, ≤ -4.2
- U53A G70C C149G — lower, ≤ -4.2
- A19U A21C A120C — higher, -1.83
- C69G G94A U104G — higher, -1.19
- A3C A19G A21U U45A U82C G92C U139G U144A — lower, ≤ -4.2
- A49U A91G U130A A138U — lower, ≤ -4.2
- U56A U82G C96U A120G — higher, -0.394
- G25C U33G G59A U78A G92C C99A G100U U134A — lower, ≤ -4.2
- C54U A142U — higher, -0.665
- C57U A64U G92C C105U — lower, ≤ -4.2
- U44A A49C C54G C57U G58C C95G C96U — lower, ≤ -4.2
- C8A A23C A26C U33C U78G A98G U144G — lower, ≤ -4.2
- G59A C76G U78G C85U G88A G92C — lower, ≤ -4.2
- G48C G59U G94A A119U — higher, -1.58
- A40U G83A C95A A115U G128U C129A — lower, ≤ -4.2
- U33C G42A C93U C108U — lower, ≤ -4.2
- A3C C14G C103G A119G — lower, ≤ -4.2
- A30G G71C U78A C95G A115C — lower, ≤ -4.2
- A137G U148A — within 0.2 log units, -3.67
- G58C G92U A122G — higher, -1.45
- C93U A121U — higher, -0.267
- C8G C131U U144G — lower, ≤ -4.2
- G25A U33C C35A A73C A91G G117A C118U — lower, ≤ -4.2
- A21G A26U C87A C125G U135C U146C — lower, ≤ -4.2
- U7G U31A C57U G94C U135C G140U U148C — lower, ≤ -4.2
- A28U G42C G83C A121U — lower, ≤ -4.2
- A19U U31A A41G C87G G124U — lower, -4.17
- G58C C87U U135C — higher, -2.22
- A47C G48U G50A U55A G94A — lower, ≤ -4.2
- A17G A40G G50C C85A — lower, ≤ -4.2
- A40G G84A C85G A106G — lower, ≤ -4.2
- C96U G100C — lower, -3.97
- A28C G42A A113U C116U — lower, ≤ -4.2
- A22U C43A C57G C93U C96U — lower, ≤ -4.2
